Test results as given in US20120071394A1 (ALLIGATOR BIOSCIENCE, published 2012).

Biological target: T1, Wild-type CHIPS1-121 (Chemotaxis Inhibitory Protein of Staphylococcus aureus) (Staphylococcus aureus, UniProt A6QIG7 29-149)
T1 construct: His tag cleaved off with enterokinase; also called CHIPSWT
Experiment: flow cytometry of gated blood neutrophils after iv CHIPS, stained with rabbit anti-CHIPS IgG and FITC goat anti-rabbit; the staining does not separate C5aR-bound from FPR-bound CHIPS

B1: human C5a receptor (C5aR) (receptor)
chain: MDSFNYTTPDYGHYDDKDTLDLNTPVDKTSNTLRVPDILALVIFAVVFLVGVLGNALVVWVTAFEAKRTINAIWFLNLAVADFLSCLALPILFTSIVQHHHWPFGGAACSILPSLILLNMYASILLLATISADRFLLVFKPIWCQNFRGAGLAWIACAVAWGLALLLTIPSFLYRVVREEYFPPKVLCGVDYSHDKRRERAVAIVRLVLGFLWPLLTLTICYTFILLRTWSRRATRSTKTLKVVVAVVASFFIFWLPYQVTGIMMSFLEPSSPTFLLLKKLDSLCVSFAYINCCINPIIYVVAGQGFQGRLRKSLPSLLRNVLTEESVVRESKSFTRSTVDTMAQKTQAV
notes: whole, on cells; also called CD88
  binding result: binds

B2: formylated peptide receptor (FPR) (receptor)
chain: METNSSLPTNISGGTPAVSAGYLFLDIITYLVFAVTFVLGVLGNGLVIWVAGFRMTHTVTTISYLNLAVADFCFTSTLPFFMVRKAMGGHWPFGWFLCKFVFTIVDINLFGSVFLIALIALDRCVCVLHPVWTQNHRTVSLAKKVIIGPWVMALLLTLPVIIRVTTVPGKTGTVACTFNFSPWTNDPKERINVAVAMLTVRGIIRFIIGFSAPMSIVAVSYGLIATKIHKQGLIKSSRPLRVLSFVAAAFFLCWSPYQVVALIATVRIRELLQGMYKEIGIAVDVTSALAFFNSCLNPMLYVFMGQDFRERLIHALPASLERALTEDSTQTSDTATNSTLPSAEVELQAK
notes: whole, on cells
  binding result: binds
